From US8980581B2, “Site-specific incorporation of amino acids into molecules” (California Institute of Technology, priority 2006, dated 2015)
Converted amounts (≈) assume the structure as drawn. Like-named read-outs stand apart in the source and are kept apart here.

Tests used:
N[C@@H](Cc1ccccc1)C(=O)O = experiment: purified protein, by the assay type; settings: pH 7.6
[1] = tested on: N[C@@H](Cc1ccc2ccccc2c1)C(=O)O; experiment: purified protein, by the assay type; settings: pH 7.6
[2] = tested on: N[C@@H](Cc1c[nH]c2ccccc12)C(=O)O; experiment: purified protein, by the assay type; settings: pH 7.6
[3] = target: mu-yPheRS (Thr415Gly or Thr415Ala mutation in the α-subunit) (Saccharomyces cerevisiae, UniProt P15625, T415G); experiment: adenosine triphosphate-pyrophosphate exchange assay, activation of NaI and Phe by mu-yPheRS; assay type: biochemical
Sequence of mu-yPheRS (Thr415Gly or Thr415Ala mutation in the α-subunit) (P15625 2-503 T415G): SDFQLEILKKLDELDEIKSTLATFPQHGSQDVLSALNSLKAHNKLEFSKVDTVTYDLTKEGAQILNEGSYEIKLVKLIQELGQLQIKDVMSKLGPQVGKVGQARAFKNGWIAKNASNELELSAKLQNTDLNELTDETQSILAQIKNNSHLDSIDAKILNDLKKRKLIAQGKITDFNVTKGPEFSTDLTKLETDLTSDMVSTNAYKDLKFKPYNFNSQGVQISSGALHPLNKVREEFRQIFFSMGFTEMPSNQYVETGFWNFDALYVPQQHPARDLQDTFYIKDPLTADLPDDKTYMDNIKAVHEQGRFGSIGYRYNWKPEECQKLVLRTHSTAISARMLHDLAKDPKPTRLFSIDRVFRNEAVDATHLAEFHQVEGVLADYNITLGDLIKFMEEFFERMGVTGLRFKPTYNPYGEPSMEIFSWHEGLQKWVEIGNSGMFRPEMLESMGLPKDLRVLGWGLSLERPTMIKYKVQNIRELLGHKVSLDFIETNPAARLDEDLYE
Sequence of mu-yPheRS (Thr415Gly or Thr415Ala mutation in the α-subunit) (P15624 2-595, further chain): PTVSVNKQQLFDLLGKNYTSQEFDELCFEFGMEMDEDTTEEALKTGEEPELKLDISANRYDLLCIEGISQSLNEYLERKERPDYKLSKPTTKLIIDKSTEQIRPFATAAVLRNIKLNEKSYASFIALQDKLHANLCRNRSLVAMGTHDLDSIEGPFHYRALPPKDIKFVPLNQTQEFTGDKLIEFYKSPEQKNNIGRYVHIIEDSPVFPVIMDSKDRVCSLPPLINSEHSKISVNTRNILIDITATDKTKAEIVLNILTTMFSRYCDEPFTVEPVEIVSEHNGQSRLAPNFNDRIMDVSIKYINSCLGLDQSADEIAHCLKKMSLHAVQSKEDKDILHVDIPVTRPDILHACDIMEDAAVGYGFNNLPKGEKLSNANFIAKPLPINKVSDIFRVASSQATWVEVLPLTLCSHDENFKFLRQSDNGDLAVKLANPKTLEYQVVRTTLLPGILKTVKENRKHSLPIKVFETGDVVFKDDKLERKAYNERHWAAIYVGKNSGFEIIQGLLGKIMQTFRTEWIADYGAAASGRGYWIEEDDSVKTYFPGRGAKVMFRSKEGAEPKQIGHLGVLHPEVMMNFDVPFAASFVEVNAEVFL
Protocol: The modified yeast PheRS (mu-yPheRS) was prepared by introduction of a Thr415Gly or Thr415Ala mutation in the α-subunit of the synthetase (Datta et al., J. Am. Chem. Soc. 124: 5652, 2002). The kinetics of activation of NaI and Phe by mu-yPheRS were analyzed in vitro via the adenosine triphosphate-pyrophosphate exchange assay. […] In addition, the T415G mutant was generated by four-primer mutagenesis.

[4] = target: T1, mutant yeast PheRS with mutations in N412G, S418C, T415G and S437F (Saccharomyces cerevisiae, UniProt P15625, N412G/S418C/S437F/T415G); experiment: yeast PheRS library GFP/FACS screening, incorporation at UUU codon; assay type: cell-based; settings: mutant yPheRS N412G, S437F after two cycles of screening
T1 construct: expressed in transfected cells; host or cells: E. coli AFW and DHF cells carrying pQE9_GFP6/GFP9_yPheRS library plasmids
Description: For example, in one embodiment, a yeast PheRS library is subjected to double sieve screening in order to detect high levels of incorporation of a non-natural amino acid or misincorporation of natural amino acids other than Phe will lead to severe misfolding or unfolding of GFP. The yeast PheRS library cells are thus subjected to high-throughput screening based on flow cytommetry analysis (FACS). First, the yeast PheRS library cells are expressed in the presence of 2NaI and low fluorescent cells indicating higher incorporation of either 2NaI or other natural amino acids are collected by FACS. Next, the yeast PheRS library cells are expressed without 2NaI. Bright cells are collected in order to eliminate yeast PheRS variants that can misincorporate other natural amino acids.
Library construction was performed in two steps as well. […]
The library was transformed into chemical-competent AFW and DHF E. coli cells. […] Glycerol stocks of the library were expressed as is standard in the art.
After expression of GFP for 3 hours, 1 mL of cells (based on OD600 of 1.0) were washed with PBS and diluted in distilled water, then subjected to flow cytometric analysis (MoFlo cell Sorter®, DakoCytomation, Fort Collins, Colo.), using an excitation wavelength of 488 nm, emission of 525 nm, and a cut-off filter of 495 nm. […] Data were analyzed with Summit software (DakoCytomation). […]

[5] = target: modified yeast PheRS (T415G) and tRNA^Phe with an amber suppressor (Saccharomyces cerevisiae, UniProt P15625, T415G); assay type: cell-based; settings: FIG. 13 mass spectra
Protocol: A yeast PheRS library (using green fluorescent protein or GFP) was screened to identify PheRS mutations that enable the incorporation of NaI.
Briefly, GFP was ligated into a vector containing the mutant T415G or wild type yeast PheRS gene according to standard procedures. The mutant yeast amber suppressor tRNA (yRNA^PheAAA) was constitutively expressed under control of Ipp promoter and transformed into a Phe/Trp double E. coli auxotrophic strain AFW. Cells were grown in M9 minimal medium supplemented with glucose, thiamin, MgSO4, CaCl2, 20 amino acids (at 25 mg/L), antibiotics (35 μg/mL of kanamycin and 100 μg/mL of ampicillin). When cells reached an OD600 of 0.8-1.0, cells were pelleted and washed twice by ice-cold 0.9% NaCl and shifted to expression media supplemented with 18 amino acids (at 20 mg/L) and various concentrations of phenylalanine, tryptophan and 2NaI. Protein expression was induced by IPTG.

[6] = target: (T415A) yeast phenylalanine aminoacyl tRNA synthetase (PheRS) (Saccharomyces cerevisiae, UniProt P15625, T415A); assay type: biochemical
Sequence of (T415A) yeast phenylalanine aminoacyl tRNA synthetase (PheRS) (P15624 whole entry): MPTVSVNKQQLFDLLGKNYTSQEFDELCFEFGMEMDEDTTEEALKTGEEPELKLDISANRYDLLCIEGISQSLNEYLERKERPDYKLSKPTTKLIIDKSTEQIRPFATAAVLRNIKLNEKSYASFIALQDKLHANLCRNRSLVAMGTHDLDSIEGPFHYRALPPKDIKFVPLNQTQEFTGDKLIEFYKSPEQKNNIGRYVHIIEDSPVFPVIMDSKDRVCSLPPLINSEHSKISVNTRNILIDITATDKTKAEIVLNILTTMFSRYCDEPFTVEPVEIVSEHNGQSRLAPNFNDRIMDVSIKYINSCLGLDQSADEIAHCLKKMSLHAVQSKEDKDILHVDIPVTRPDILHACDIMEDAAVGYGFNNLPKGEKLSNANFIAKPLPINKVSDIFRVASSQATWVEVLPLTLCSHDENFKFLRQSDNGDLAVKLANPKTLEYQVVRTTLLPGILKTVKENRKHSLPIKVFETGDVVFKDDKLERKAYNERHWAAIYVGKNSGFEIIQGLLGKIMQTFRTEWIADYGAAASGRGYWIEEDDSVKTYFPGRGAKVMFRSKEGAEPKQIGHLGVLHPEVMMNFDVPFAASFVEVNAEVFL
Sequence of (T415A) yeast phenylalanine aminoacyl tRNA synthetase (PheRS) (P15625 whole entry T415A): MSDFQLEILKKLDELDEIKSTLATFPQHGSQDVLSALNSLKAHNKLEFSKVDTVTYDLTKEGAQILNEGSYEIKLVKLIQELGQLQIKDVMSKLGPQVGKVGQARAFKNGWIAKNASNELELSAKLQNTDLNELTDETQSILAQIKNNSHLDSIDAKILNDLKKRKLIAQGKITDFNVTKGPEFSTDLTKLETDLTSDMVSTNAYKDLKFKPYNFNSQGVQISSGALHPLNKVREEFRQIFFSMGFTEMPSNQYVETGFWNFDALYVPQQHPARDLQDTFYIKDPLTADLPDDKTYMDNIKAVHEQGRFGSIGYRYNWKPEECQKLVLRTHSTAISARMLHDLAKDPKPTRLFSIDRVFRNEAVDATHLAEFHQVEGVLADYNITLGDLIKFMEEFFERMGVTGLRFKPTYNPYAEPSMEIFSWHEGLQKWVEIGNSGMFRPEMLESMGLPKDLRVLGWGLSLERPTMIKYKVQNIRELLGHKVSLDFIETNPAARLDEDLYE
Protocol: The amino acid-dependent ATP-PP; exchange reaction was used to evaluate the activation of amino acid analogs by yPheRS as described in the above Examples. Briefly, a 200 microliter aliquot of reaction buffer contains 50 mM HEPES (pH 7.6), 20 nM MgCl2, 1 mM DTT, 2 mM ATP, and 2 mM ^32P-pyrophosphate (PPi) with specific activity of 10-50 Ci/mol. Depending on the activity of analogs by the synthetase, the amino acid concentration varied from 10 microM to 2.5 mM and enzyme concentration varied from 10 nM to 100 nM. Aliquots of 20 microliters were removed from the reaction solution at various time points and quenched into 500 microliters of buffer solution containing 200 mN NaPPi, 7% w/v HclO4, and 3% w/v activated charcoal. The charcoal was spun down and washed twice with 500 microliters of 10 mM NaPP; and 0.5% HClO4 solution. The radio-labeled ATP absorbed into the charcoal was quantified via liquid scintillation methods. The specificity constants were calculated by non linear regression fit for the data to a Michaelis Menten model.

Escherichia coli = settings: E. coli cells, cited from earlier work
[7] = substrate: N[C@@H](Cc1ccccc1)C(=O)O; experiment: ATP-PPi exchange of amino acids by wild type yPheRS, Example 3; assay type: biochemical, Saccharomyces cerevisiae; settings: other: enzyme wild type; pH 7.6
Protocol: The amino acid dependent ATP-PP; exchange reaction was used to evaluate the activation of non-natural amino acids by yPheRS. The assay was performed in 200 mincroliters of reaction buffer containing 50 mM HEPES (pH=7.6), 20 mM MgCl2, 1 mM DTT, 2 mM ATP and 2 mM [^32P]-PPi with specific activity of 0.2-0.5 TBq/mol. Depending on the activity of the various non-natural amino acids with the synthetase, the amino acid concentration varied from 10 microM to 5 mM and enzyme concentration varied from 10 nM to 100 nM. Aliquots of 20 microliters were removed from the reaction solution at various time points and quenched into 500 microliters of buffer solution containing 200 mM NaPPi, 7% w/v HClO4 and 3% w/v activated charcoal. The charcoal was spun down and washed twice with 500 microliters of 10 mM NaPPi and 0.5% HclO4 solution. The radio-labeled ATP absorbed into the charcoal was quantified via liquid scintillation methods. The specificity constants were calculated by nonlinear regression fit of the data to a Michaelis Menten model. The kinetic parameters for the ATP-PPi exchange of amino acids by the yPheRS (T415G), wild type yPheRS, and yPheRS_naph variant are shown in the table below.

In the case of “yPheRS (T415G) (Saccharomyces cerevisiae S288C; T415G)”, the Km (N[C@@H](Cc1ccccc1)C(=O)O; other: enzyme T415G) is reported as 55 ± 14 µM, the kcat (N[C@@H](Cc1ccccc1)C(=O)O; other: enzyme T415G) is reported as 0.202 ± 0.11 s⁻¹ and the kcat/Km (N[C@@H](Cc1ccccc1)C(=O)O; other: enzyme T415G) is reported as 3510 ± 1130 M⁻¹ s⁻¹. The Km ([1]; other: enzyme T415G) was 7.03 ± 0.14 µM, the kcat ([1]; other: enzyme T415G) was 0.208 ± 0.04 s⁻¹ and the kcat/Km ([1]; other: enzyme T415G) was 29500 ± 5850 M⁻¹ s⁻¹. It also gave a Km ([2]; other: enzyme T415G) of 2.83 ± 1.6 µM, a kcat ([2]; other: enzyme T415G) of 0.153 ± 0.003 s⁻¹ and a kcat/Km ([2]; other: enzyme T415G) of 63200 ± 34600 M⁻¹ s⁻¹.

“yPheRS_naph variant (Saccharomyces cerevisiae S288C; N412G/S418C/S437F/T415G)” showed a Km (N[C@@H](Cc1ccccc1)C(=O)O; other: enzyme naph) of 11010 ± 2688 µM, a kcat (N[C@@H](Cc1ccccc1)C(=O)O; other: enzyme naph) of 0.0095 ± 0.0021 s⁻¹ and a kcat/Km (N[C@@H](Cc1ccccc1)C(=O)O; other: enzyme naph) of 0.855 ± 0.007 M⁻¹ s⁻¹. It also gave a Km ([1]; other: enzyme naph) of 2030 ± 691 µM, a kcat ([1]; other: enzyme naph) of 0.03 ± 0.018 s⁻¹ and a kcat/Km ([1]; other: enzyme naph) of 14.5 ± 4.22 M⁻¹ s⁻¹. The Km ([2]; other: enzyme naph) was 1424 ± 597 µM, the kcat ([2]; other: enzyme naph) was 0.0035 ± 0.0009 s⁻¹ and the kcat/Km ([2]; other: enzyme naph) was 2.52 ± 0.44 M⁻¹ s⁻¹.

For `N[C@@H](Cc1ccc2ccccc2c1)C(=O)O` [2Nal, 3-(2-naphthyl)alanine], the “specificity constant (kcat/KM), fold larger than that for Phe” value [3] was 8 fold and the “incorporation at UUU codon” value [4] was “around 90%”.

In the case of `C#Cc1ccc(C[C@H](N)C(=O)O)cc1` [p-ethynyl-phenylalanine], the “incorporation into a test protein” value [5] is reported as “incorporated into a test protein”.

For `N[C@@H](Cc1ccc(Br)cc1)C(=O)O` [bromophenylalanine, p-bromo-phenylalanine], the “preference for bromophenylalanine than for naturally occurring phenylalanine” value [6] was 5 fold.

In the case of `CC1(C)S[C@@H]2[C@H](NC(=O)[C@H](N)c3ccccc3)C(=O)N2[C@H]1C(=O)O` [ampicillin], the IC50 (Escherichia coli; SctRNAGInCUA coexpressed with ScGInRS) is given as “about 500 μg/mL” and the IC50 (Escherichia coli; only SctRNAGInCUA expressed) is given as 20 µg/mL (≈ 57.2 µM).

B1: wild type yPheRS (Saccharomyces cerevisiae S288C) (protein)
chain: MSDFQLEILKKLDELDEIKSTLATFPQHGSQDVLSALNSLKAHNKLEFSKVDTVTYDLTKEGAQILNEGSYEIKLVKLIQELGQLQIKDVMSKLGPQVGKVGQARAFKNGWIAKNASNELELSAKLQNTDLNELTDETQSILAQIKNNSHLDSIDAKILNDLKKRKLIAQGKITDFNVTKGPEFSTDLTKLETDLTSDMVSTNAYKDLKFKPYNFNSQGVQISSGALHPLNKVREEFRQIFFSMGFTEMPSNQYVETGFWNFDALYVPQQHPARDLQDTFYIKDPLTADLPDDKTYMDNIKAVHEQGRFGSIGYRYNWKPEECQKLVLRTHSTAISARMLHDLAKDPKPTRLFSIDRVFRNEAVDATHLAEFHQVEGVLADYNITLGDLIKFMEEFFERMGVTGLRFKPTYNPYTEPSMEIFSWHEGLQKWVEIGNSGMFRPEMLESMGLPKDLRVLGWGLSLERPTMIKYKVQNIRELLGHKVSLDFIETNPAARLDEDLYE
B1 showed a Km [7] of 3.85 ± 0.99 µM, a kcat [7] of 0.181 ± 0.011 s⁻¹ and a kcat/Km [7] of 51000 ± 22700 M⁻¹ s⁻¹.
